Data taken from patent publication US20150166643A1 (Alexion, published 2015).
Numbering of substitutions follows the chain as printed. In names and notes the source's numbering stands.

Experiments:
[1] = molecular target: T1, human factor B (purified, Complement Technology A135) (human, UniProt P00751 26-764); experiment: SPR (Biacore 3000), mAb captured by anti-Fc antibody on CM5 chip, soluble human factor B 3.1-200 nM; filing calls this value not reliable (poor fits); poor fits; patent calls the value not reliable
T1 construct: also called fB; human complement factor B
T1 sequence (P00751 26-764): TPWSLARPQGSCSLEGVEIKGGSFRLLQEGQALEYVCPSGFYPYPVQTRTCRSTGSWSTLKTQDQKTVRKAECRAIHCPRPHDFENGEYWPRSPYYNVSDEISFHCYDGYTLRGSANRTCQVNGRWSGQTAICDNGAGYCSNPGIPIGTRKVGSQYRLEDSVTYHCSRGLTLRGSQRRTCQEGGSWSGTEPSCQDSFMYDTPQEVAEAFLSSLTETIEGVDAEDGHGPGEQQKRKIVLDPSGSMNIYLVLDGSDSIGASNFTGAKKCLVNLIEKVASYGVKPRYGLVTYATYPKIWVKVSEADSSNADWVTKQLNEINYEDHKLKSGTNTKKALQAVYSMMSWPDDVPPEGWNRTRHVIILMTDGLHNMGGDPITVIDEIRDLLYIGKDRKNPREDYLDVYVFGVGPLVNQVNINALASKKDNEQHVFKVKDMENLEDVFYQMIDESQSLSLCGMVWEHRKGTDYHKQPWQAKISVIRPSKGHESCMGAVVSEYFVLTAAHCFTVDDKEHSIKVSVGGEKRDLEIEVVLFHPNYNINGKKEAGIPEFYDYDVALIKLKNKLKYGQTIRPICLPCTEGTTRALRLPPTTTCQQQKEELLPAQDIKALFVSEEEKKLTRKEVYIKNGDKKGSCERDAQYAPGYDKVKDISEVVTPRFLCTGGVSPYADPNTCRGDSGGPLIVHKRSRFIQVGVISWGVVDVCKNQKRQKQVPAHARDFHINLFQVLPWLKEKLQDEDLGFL
From the text: (§1) Binding kinetics of mAbs were further characterized using Biacore's Surface Plasmon Resonance (SPR) technology (GE Healthcare, Piscataway, N.J.). For a detailed description of SPR and its applications in affinity measurement, please see Karlsson and Larsson, Antibody Engineering: Methods and Protocols, Methods in Molecular Biology (2003), 248: 389-415. In one exemplary experiment, TA106 Fab and derivative mAbs were captured on chips of a Biacore 3000 analyzer and samples of human factor B of different concentrations were flowed as the antigen over the surface to model soluble human factor B binding, using protocols recommended by the manufacturer (e.g., in the product brochure #BR-9003-31). All these referenced publications are hereby incorporated by reference in their entirety. […] Fab TA106 (Xoma, Lot#TTA1007, 20 mg/mL) was then flowed over one flow cell, followed by injections of human factor B on both flow cells. Concentrations (factor B) between 3.1-200 nM were run. The surface was regenerated between each cycle. […] The affinities of mAbs, i.e., CLS011, CLS012, and CLS013, were determined using a similar capture approach. In one exemplary experiment, human anti-Fc antibody was amine coupled to two flow cells of a CM5 chip. Each of the TA106-originated mAbs was then flowed over one flow cell, followed by injecting human factor B (3.1-200 nM) on both flow cells. […]

[2] = molecular target: T1, human factor B (purified, Complement …); experiment: SPR (Biacore), CLS012 captured on anti-Fc surface, soluble factor B 3.1-200 nM flowed; Chi2 6.74, fitted lines depart visibly from the data (the text calls the fits poor)
From the text: as §1

[3] = molecular target: T1, human factor B (purified, Complement …); experiment: cell-based or functional assay
[4] = molecular target: T1, human factor B (purified, Complement …); experiment: BLI (Octet), biotinylated factor B on streptavidin biosensor, Fab at 3.13 nM
Procedure: (§2) Binding kinetics of TA106 and TA106 S33A Fab (CLS016) to Factor B were analyzed using a FortéBio® Octet® biosensor (FortéBio, Inc.) in a similar protocol as described previously. In one exemplary experiment, Factor B (Complement Technology) was biotinylated at a 1:10 ratio and coupled to a streptavidin biosensor at a concentration of 5 μg/mL for a loading time of 600 seconds. Biosensors were briefly dipped in 1×KB as a wash for 30 seconds. Associations with a titration series of Fab with a concentration range from 100 to 3 nM (diluted in 1×KB) were carried out for 600 seconds. Fabs were dissociated from the biosensor by immersing the biosensor in 1×KB during the 600 second dissociation phase. As depicted in FIGS. 19 and 20, both TA106 Fab and TA106-derivative S33A Fab (CLS016) bound to Factor B at various concentrations, resulting in nearly identical association and dissociation profiles. Kinetic assessments using partial local fit parameters yielded identical values for KD/kₐ/Kd at each concentration tested.

[5] = molecular target: T1, human factor B (purified, Complement …); experiment: BLI (Octet), biotinylated factor B on streptavidin biosensor, Fab at 25 nM
Procedure: as §2

[6] = molecular target: T1, human factor B (purified, Complement …); experiment: BLI (Octet), biotinylated factor B on streptavidin biosensor, Fab at 100 nM
Procedure: as §2

[7] = molecular target: T1, human factor B (purified, Complement …); experiment: BLI (Octet), biotinylated factor B on streptavidin biosensor, Fab at 6.25 nM
Procedure: as §2

[8] = molecular target: T1, human factor B (purified, Complement …); experiment: SPR (Biacore), factor B coupled to the chip, free CLS016 Fab 0.19-25 nM flowed; Chi2 0.121
From the text: (§3) Binding kinetics of TA106 Fab and variant S33A Fab (CLS016) were further characterized using Surface Plasmon Resonance (SPR) technology. In one exemplary experiment, both Fabs were captured on chips of a Biacore 3000 analyzer and samples of human factor B of different concentrations were flowed as the antigen over the surface to model soluble human factor B binding, using protocols recommended by the manufacturer and described previously in the instant disclosure. […] In another exemplary experiment, the affinities of both Fabs were also measured by reversing the orientation of the previous experiment. Specifically, human factor B was directly coupled to one flow cell of a CM5 chip. The second flow cell was used as a blank reference with no coupled ligand. CLS016 or TA106 Fab was then flowed on both flow cells. Concentrations between 0.19 to 25 nM were run with duplicates. The surface was regenerated between each cycle.

[9] = molecular target: T1, human factor B (purified, Complement …); experiment: SPR, factor B on surface, Fab flowed (summary table)
From the text: as §3

[10] = molecular target: T1, human factor B (purified, Complement …); experiment: SPR (Biacore), factor B coupled to the chip, free CLS016 Fab 0.19-25 nM flowed; Chi2 0.121 (the text rounds to 3.4 nM)
From the text: as §3

[11] = molecular target: T1, human factor B (purified, Complement …); experiment: BLI (Octet), binding to factor B (summary table)
Procedure: as §2

[12] = molecular target: T1, human factor B (purified, Complement …); experiment: SPR (Biacore), human factor B directly coupled to CM5 chip, Fab flowed at 0.19-25 nM
From the text: as §3

[13] = molecular target: T1, human factor B (purified, Complement …); experiment: SPR (Biacore 3000), Fab captured on chip, soluble human factor B 3.1-100 nM
From the text: as §3

[14] = molecular target: T1, human factor B (purified, Complement …); experiment: SPR (Biacore), CLS016 Fab captured on anti-Fab surface, soluble factor B flowed; Chi2 0.155
From the text: as §3

[15] = molecular target: T1, human factor B (purified, Complement …); experiment: BLI (Octet), biotinylated factor B on streptavidin biosensor, Fab at 50 nM
Procedure: as §2

[16] = molecular target: T1, human factor B (purified, Complement …); experiment: BLI (Octet), biotinylated factor B on streptavidin biosensor, Fab at 12.5 nM
Procedure: as §2

B1: CLS012 (TA106-derivative N31Q variant, full-length IgG2/4 mAb, expressed in CHO cells) (antibody, V domains shown)
VH: EVQLVQSGAEVKKPGASVKVSCKASGYSFTDYYMTWVRQAPGQGLEWMGWINPNSGGTKYAQKFQGRVTMTRDTSISTAYMELSRLRSDDTAVYYCARGYYANSAWFAYWGQGTLVTVSS
VL: DIVMTQSPDSLAVSLGERATINCKSSQSLLQSSTSKNYLAWYQQKPGQPPKLLIYWASTRESGVPDRFSGSGSGTDFTLTISSLQAEDVAVYYCKQVYNLPWTFGQGTKLEIKR
modifications: N-linked glycans on the heavy chain constant region
notes: Human IgG2/4 full-length mAb; also called CLS012 mAb; TA106 variant N31Q
Kd [1]: ~11.5 nM
koff [2]: 0.00422 s⁻¹
kon [2]: 366000 M⁻¹ s⁻¹
IC50 (read off the curve); lysis of rabbit red blood cells in 10% normal human serum [3]: ~20 nM

B2: CLS016 (TA106-derivative S33A variant, IgG1 Fab, expressed in CHO cells) (Fab, V domains shown)
VH: B1 VH with E1Q
VL: B1 VL with Q31N, S33A
notes: IgG1 Fab of the S33A variant, made in CHO cells; also called TA106 S33A Fab; TA106-derivative S33A Fab
Kd [4]: 28 nM
koff [4]: 0.00244 s⁻¹
kon [4]: 87300 M⁻¹ s⁻¹
Kd [5]: 22.2 nM
koff [5]: 0.00392 s⁻¹
kon [5]: 177000 M⁻¹ s⁻¹
Kd [6]: 13 nM
koff [6]: 0.00438 s⁻¹
kon [6]: 338000 M⁻¹ s⁻¹
Kd [7]: 41.9 nM
koff [7]: 0.00322 s⁻¹
kon [7]: 76900 M⁻¹ s⁻¹
koff [8]: 0.00466 s⁻¹
kon [8]: 1.38e+06 M⁻¹ s⁻¹
Kd [9]: 2.6 nM
Kd [10]: 3.37 nM
Kd [11]: 20 to 30 nM
Kd [12]: ~3.4 nM
Kd [13]: ~32.8 nM
koff [14]: 0.00429 s⁻¹
kon [14]: 131000 M⁻¹ s⁻¹
Kd [15]: 21.5 nM
koff [15]: 0.00412 s⁻¹
kon [15]: 192000 M⁻¹ s⁻¹
Kd [16]: 31.4 nM
koff [16]: 0.00353 s⁻¹
kon [16]: 112000 M⁻¹ s⁻¹
